According to US20210087258A1 (UNIVERSITY OF TOKYO, published 2021):

Molecular target: T1, P1-2 domain of VP1 of human norovirus (GII.4 strain) (human norovirus (GII.4 strain))
T1 construct: also called VP1 P1-2 domain
T1 chain: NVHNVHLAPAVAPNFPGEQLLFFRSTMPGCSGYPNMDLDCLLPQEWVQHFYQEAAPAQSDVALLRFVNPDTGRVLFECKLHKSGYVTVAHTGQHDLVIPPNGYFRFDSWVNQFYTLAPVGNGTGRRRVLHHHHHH
Assay: Western blot of denatured VP1 domains

B1: KVP-12B8 (VHH)
VHH: EVQLVESGGGSVQSGGSLRLSCAASGYPFSDNAMGWYRQAPGNQRELVATITNSNSTKYADSVKGRFTISRDSAKNTIYLEMNSLKPEDTAIYYCRIERTGRTSIKWTYWGQGTQVTVSS
notes: Llama VHH (nanoantibody) expressed in E. coli from pMEK222 (FLAG tag and His tag); also called IC VP-12B8; not shown: FLAG tag and His tag from vector pMEK222
binding result: no binding (tested: 10 µg/ml)

B2: KVP-7C6 (VHH)
VHH: EVQLVESGGGLVQAGGSLRLSCAASGRTFGPNVMGWYRQAPGKQRELVASKTSGRLSNYADSVKGRFAISRDFAKNTLYLQMNNLRPDDTAVYYCRLWDSARSTEYWGQGTQVTVSS
notes: Llama VHH (nanoantibody) expressed in E. coli from pMEK222 (FLAG tag and His tag); not shown: FLAG tag and His tag from vector pMEK222
binding result: no binding (tested: 10 µg/ml)
